Laboratory results published in IntAct's records for PubMed 16642037.

B1: RAC-alpha serine/threonine-protein kinase (Rattus norvegicus (Rat)), P47196 (parent)
chain: MNDVAIVKEGWLHKRGEYIKTWRPRYFLLKNDGTFIGYKERPQDVEQRESPLNNFSVAQCQLMKTERPRPNTFIIRCLQWTTVIERTFHVETPEEREEWTTAIQTVADGLKRQEEETMDFRSGSPSDNSGAEEMEVALAKPKHRVTMNEFEYLKLLGKGTFGKVILVKEKATGRYYAMKILKKEVIVAKDEVAHTLTENRVLQNSRHPFLTALKYSFQTHDRLCFVMEYANGGELFFHLSRERVFSEDRARFYGAEIVSALDYLHSEKNVVYRDLKLENLMLDKDGHIKITDFGLCKEGIKDGATMKTFCGTPEYLAPEVLEDNDYGRAVDWWGLGVVMYEMMCGRLPFYNQDHEKLFELILMEEIRFPRTLGPEAKSLLSGLLKKDPTQRLGGGSEDAKEIMQHRFFANIVWQDVYEKKLSPPFKPQVTSETDTRYFDEEFTAQMITITPPDQDDSMECVDSERRPHFPQFSYSASGTA

Variants of: B1
Conditions: with nfkb1_rat Nfkb1, Q63369
Chain of nfkb1_rat Nfkb1, Q63369 (Q63369 whole entry): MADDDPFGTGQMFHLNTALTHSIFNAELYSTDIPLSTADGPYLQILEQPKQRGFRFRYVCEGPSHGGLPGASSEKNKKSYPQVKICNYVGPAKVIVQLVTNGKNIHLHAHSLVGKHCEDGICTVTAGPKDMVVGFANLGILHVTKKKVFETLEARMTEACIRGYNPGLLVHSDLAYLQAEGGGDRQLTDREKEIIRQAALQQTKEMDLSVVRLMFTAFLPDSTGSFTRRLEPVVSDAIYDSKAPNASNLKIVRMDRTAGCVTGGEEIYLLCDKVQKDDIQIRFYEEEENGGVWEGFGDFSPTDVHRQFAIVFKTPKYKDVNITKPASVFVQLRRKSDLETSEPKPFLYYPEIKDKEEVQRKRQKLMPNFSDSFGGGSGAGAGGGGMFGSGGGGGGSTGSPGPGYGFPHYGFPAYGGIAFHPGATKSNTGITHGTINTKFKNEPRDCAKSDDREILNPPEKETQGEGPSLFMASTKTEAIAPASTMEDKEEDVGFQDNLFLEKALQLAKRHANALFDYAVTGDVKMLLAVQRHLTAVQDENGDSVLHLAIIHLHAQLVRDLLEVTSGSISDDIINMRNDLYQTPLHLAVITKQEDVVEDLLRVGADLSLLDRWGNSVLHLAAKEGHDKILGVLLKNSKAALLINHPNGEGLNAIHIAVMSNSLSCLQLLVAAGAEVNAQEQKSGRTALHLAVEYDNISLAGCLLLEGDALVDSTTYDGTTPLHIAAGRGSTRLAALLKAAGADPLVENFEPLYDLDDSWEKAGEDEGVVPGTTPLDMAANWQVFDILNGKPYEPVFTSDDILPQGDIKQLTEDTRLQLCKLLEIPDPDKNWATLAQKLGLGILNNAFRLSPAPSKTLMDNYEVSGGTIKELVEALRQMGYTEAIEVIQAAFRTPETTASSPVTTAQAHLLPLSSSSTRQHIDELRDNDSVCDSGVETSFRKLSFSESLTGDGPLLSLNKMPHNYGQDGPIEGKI

Row | Variant | effect of a mutation on the interaction
1 | MNDVAIVKEGWLHKRGEYIKTWRPRYFLLKNDGTFIGYKERPQDVEQRESPLNNFSVAQCQLMKTERPRPNTFIIRCLQWTTVIERTFHVETPEEREEWTTAIQTVADGLKRQEEETMDFRSGSPSDNSGAEEMEVALAKPKHRVTMNEFEYLKLLGKGTFGKVILVKEKATGRYYAMAILKKEVIVAKDEVAHTLTENRVLQNSRHPFLTALKYSFQTHDRLCFVMEYANGGELFFHLSRERVFSEDRARFYGAEIVSALDYLHSEKNVVYRDLKLENLMLDKDGHIKITDFGLCKEGIKDGATMKTFCGTPEYLAPEVLEDNDYGRAVDWWGLGVVMYEMMCGRLPFYNQDHEKLFELILMEEIRFPRTLGPEAKSLLSGLLKKDPTQRLGGGSEDAKEIMQHRFFANIVWQDVYEKKLSPPFKPQVTSETDTRYFDEEFTAQMITITPPDQDDSMECVDSERRPHFPQFSYSASGTA [K179A] | increasing interaction
2 | MNDVAIVKEGWLHKRGEYIKTWRPRYFLLKNDGTFIGYKERPQDVEQRESPLNNFSVAQCQLMKTERPRPNTFIIRCLQWTTVIERTFHVETPEEREEWTTAIQTVADGLKRQEEETMDFRSGSPSDNSGAEEMEVALAKPKHRVTMNEFEYLKLLGKGTFGKVILVKEKATGRYYAMKILKKEVIVAKDEVAHTLTENRVLQNSRHPFLTALKYSFQTHDRLCFVMEYANGGELFFHLSRERVFSEDRARFYGAEIVSALDYLHSEKNVVYRDLKLENLMLDKDGHIKITDFGLCKEGIKDGATMKDFCGTPEYLAPEVLEDNDYGRAVDWWGLGVVMYEMMCGRLPFYNQDHEKLFELILMEEIRFPRTLGPEAKSLLSGLLKKDPTQRLGGGSEDAKEIMQHRFFANIVWQDVYEKKLSPPFKPQVTSETDTRYFDEEFTAQMITITPPDQDDSMECVDSERRPHFPQFSYSASGTA [T308D] | increasing interaction
3 | MNDVAIVKEGWLHKRGEYIKTWRPRYFLLKNDGTFIGYKERPQDVEQRESPLNNFSVAQCQLMKTERPRPNTFIIRCLQWTTVIERTFHVETPEEREEWTTAIQTVADGLKRQEEETMDFRSGSPSDNSGAEEMEVALAKPKHRVTMNEFEYLKLLGKGTFGKVILVKEKATGRYYAMKILKKEVIVAKDEVAHTLTENRVLQNSRHPFLTALKYSFQTHDRLCFVMEYANGGELFFHLSRERVFSEDRARFYGAEIVSALDYLHSEKNVVYRDLKLENLMLDKDGHIKITDFGLCKEGIKDGATMKTFCGTPEYLAPEVLEDNDYGRAVDWWGLGVVMYEMMCGRLPFYNQDHEKLFELILMEEIRFPRTLGPEAKSLLSGLLKKDPTQRLGGGSEDAKEIMQHRFFANIVWQDVYEKKLSPPFKPQVTSETDTRYFDEEFTAQMITITPPDQDDSMECVDSERRPHFPQFDYSASGTA [S473D] | increasing interaction
